Measured values taken from patent US20140171625A1 (FATE THERAPEUTICS, published 2014).
Positions count from the first letter of the chain named. One block for each binder: values may come before it.

Key:
[1] = target: gp130 (on C2C12 myoblasts) (UniProt Q00560); assay: cell-based or functional assay
[2] = target: T1, gp130 (on C2C12 myoblasts) (UniProt Q00560 23-917, limits assumed); assay: cell-based or functional assay
T1 sequence (looked up): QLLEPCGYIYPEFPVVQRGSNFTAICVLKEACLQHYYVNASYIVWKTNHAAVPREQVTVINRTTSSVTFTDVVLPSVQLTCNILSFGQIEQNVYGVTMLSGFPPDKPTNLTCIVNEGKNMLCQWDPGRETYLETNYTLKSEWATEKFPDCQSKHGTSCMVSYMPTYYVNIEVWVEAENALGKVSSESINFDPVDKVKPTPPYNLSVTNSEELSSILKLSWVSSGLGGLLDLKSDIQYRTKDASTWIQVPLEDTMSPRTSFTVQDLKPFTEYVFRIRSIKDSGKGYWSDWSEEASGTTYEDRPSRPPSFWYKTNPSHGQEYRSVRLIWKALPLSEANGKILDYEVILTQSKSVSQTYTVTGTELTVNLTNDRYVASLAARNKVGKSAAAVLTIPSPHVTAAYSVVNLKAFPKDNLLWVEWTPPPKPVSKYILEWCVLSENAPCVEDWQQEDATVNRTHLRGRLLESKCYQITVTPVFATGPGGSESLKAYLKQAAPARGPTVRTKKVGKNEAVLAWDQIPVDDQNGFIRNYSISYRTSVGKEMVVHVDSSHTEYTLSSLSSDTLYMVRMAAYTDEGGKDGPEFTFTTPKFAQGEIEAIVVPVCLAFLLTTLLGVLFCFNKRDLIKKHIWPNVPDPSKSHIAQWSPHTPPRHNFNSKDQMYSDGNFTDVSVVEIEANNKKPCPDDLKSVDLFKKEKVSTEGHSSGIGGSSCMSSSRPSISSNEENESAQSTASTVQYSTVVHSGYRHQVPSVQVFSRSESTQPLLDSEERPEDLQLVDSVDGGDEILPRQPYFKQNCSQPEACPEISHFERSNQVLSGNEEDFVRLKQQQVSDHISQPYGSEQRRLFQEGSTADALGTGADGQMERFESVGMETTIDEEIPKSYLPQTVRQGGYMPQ

EC50, Stat3 phosphorylation in C2C12 cells (western blot densitometry) [1]: 2 to 5 ng/mL | mean EC50, Stat3 phosphorylation in C2C12 cells [1]: 2.5 ng/mL
B1: FTV381, human CT-1 variant retaining cysteine 105 with cysteine 178 replaced (ligand)
chain: MSRREGSLEDPQTDSSVSLLPHLEAKIRQTHSLAHLLTKYAEQLLQEYVQLQGDPFGLPSFSPPRLPVAGLSAPAPSHAGLPVHERLRLDAAALAALPPLLDAVCRRQAELNPRAPRLLRRLEDAARQARALGAAVEALLAALGAANRGPRAEPPAATASAASATGVFPAKVLGLRVSGLYREWLSRTEGDLGQLLPGGSA

EC50, Stat3 phosphorylation in C2C12 cells (western blot densitometry) [1]: 0.35 ng/mL
B2: FTV380, human CT-1 variant with cysteine 105 mutated to serine (ligand)
chain: B1 chain with C105S, S178C

EC50, Stat3 phosphorylation in C2C12 cells (western blot densitometry) [1]: 4 ng/mL | mean EC50, Stat3 phosphorylation in C2C12 cells [1]: 5 ng/mL
B3: FTV384, human CT-1 variant with both natural cysteines replaced with serines and an additional cysteine at its carboxyl terminus (ligand)
chain: MSRREGSLEDPQTDSSVSLLPHLEAKIRQTHSLAHLLTKYAEQLLQEYVQLQGDPFGLPSFSPPRLPVAGLSAPAPSHAGLPVHERLRLDAAALAALPPLLDAVSRRQAELNPRAPRLLRRLEDAARQARALGAAVEALLAALGAANRGPRAEPPAATASAASATGVFPAKVLGLRVSGLYREWLSRTEGDLGQLLPGGSAC

EC50, Stat3 phosphorylation in C2C12 cells (western blot densitometry) [2]: ~1 ng/mL
B4: wild type human cardiotrophin-1 (CT-1) polypeptide, FTV370 (ligand)
chain: SRREGSLEDPQTDSSVSLLPHLEAKIRQTHSLAHLLTKYAEQLLQEYVQLQGDPFGLPSFSPPRLPVAGLSAPAPSHAGLPVHERLRLDAAALAALPPLLDAVCRRQAELNPRAPRLLRRLEDAARQARALGAAVEALLAALGAANRGPRAEPPAATASAASATGVFPAKVLGLRVCGLYREWLSRTEGDLGQLLPGGSA
